Columns and labels:
[1] = target: T1, SARS-CoV-1 RBD (SARS-CoV-1, UniProt P59594 306-527)
[2] = target: T1, SARS-CoV-1 RBD; remark: listed apart in the source

B1: VHH-72(S57G) (VHH)
VHH: QVQLQESGGGLVQAGGSLRLSCAASGRTFSEYAMGWFRQAPGKEREFVATISWSGGGTYYTDSVKGRFTISRDNAKNTVYLQMNSLKPDDTAVYYCAAAGLGTVVSEWDYDYDYWGQGTQVTVSS
Rel. EC50 - ELISA [1]: 0.3 relative to WT

B2: VHH-72 (S57A) (VHH)
VHH: QVQLQESGGGLVQAGGSLRLSCAASGRTFSEYAMGWFRQAPGKEREFVATISWSGGATYYTDSVKGRFTISRDNAKNTVYLQMNSLKPDDTAVYYCAAAGLGTVVSEWDYDYDYWGQGTQVTVSS
Rel. EC50 - ELISA [1]: 0.43 relative to WT

B3: VHH-72 (S57Y) (VHH)
VHH: QVQLQESGGGLVQAGGSLRLSCAASGRTFSEYAMGWFRQAPGKEREFVATISWSGGYTYYTDSVKGRFTISRDNAKNTVYLQMNSLKPDDTAVYYCAAAGLGTVVSEWDYDYDYWGQGTQVTVSS
EC50 [2]: > 10 µg/mL

Source: US20240059759A1 (BIGHAT BIOSCIENCES, published 2024)
